Tests used:
[1] = tested on: T1, VEGF165 (vascular endothelial growth factor, 165 aa form) (Homo sapiens), P15692-4; experiment: competition; details: 2'-NH2 at all C and U; 2'-OMe A5,A16,G13,G17,G20,G24-26,G28; PS 2'-deoxy T caps 1-4 and 29-33; 125I-VEGF receptor binding
T1 sequence: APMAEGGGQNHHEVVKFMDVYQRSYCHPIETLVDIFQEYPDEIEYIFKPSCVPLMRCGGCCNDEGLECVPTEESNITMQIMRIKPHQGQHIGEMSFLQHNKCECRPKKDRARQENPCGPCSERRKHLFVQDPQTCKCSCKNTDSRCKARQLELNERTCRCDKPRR

[2] = tested on: T1, VEGF165 (vascular endothelial growth factor, 165 aa form) (Homo sapiens), P15692-4; experiment: filter; details: 2'-NH2 at all C and U; 2'-OMe A5,A16,G13,G17,G20,G24-26,G28; PS 2'-deoxy T caps 1-4 and 29-33

TTTACCCUGAUGGUAGACGCCGGGGUGTTTTT [NX-214]
Ki [1]: 1 nM | Kd [2]: 0.2 nM
